From patent publication US20010029293A1

Key:
[1] = target: LFA-1 (CD11a/CD18) on cells (human) (UniProt P20701); experiment: JY cell adhesion to coated shICAM-R, mAb 10 µg/ml
[2] = target: LFA-1 (CD11a/CD18) on cells (human) (UniProt P20701); experiment: cell adhesion to coated shICAM-R, peptide 1-2 mg/ml
[3] = target: LFA-1 (CD11a/CD18) on cells (human) (UniProt P20701); experiment: neutrophil adhesion to coated ICAM-R/Ig, mAb 15 µg/ml

Sequence of LFA-1 (CD11a/CD18) on cells (human) (P20701 26-1170, chain 1 of 2): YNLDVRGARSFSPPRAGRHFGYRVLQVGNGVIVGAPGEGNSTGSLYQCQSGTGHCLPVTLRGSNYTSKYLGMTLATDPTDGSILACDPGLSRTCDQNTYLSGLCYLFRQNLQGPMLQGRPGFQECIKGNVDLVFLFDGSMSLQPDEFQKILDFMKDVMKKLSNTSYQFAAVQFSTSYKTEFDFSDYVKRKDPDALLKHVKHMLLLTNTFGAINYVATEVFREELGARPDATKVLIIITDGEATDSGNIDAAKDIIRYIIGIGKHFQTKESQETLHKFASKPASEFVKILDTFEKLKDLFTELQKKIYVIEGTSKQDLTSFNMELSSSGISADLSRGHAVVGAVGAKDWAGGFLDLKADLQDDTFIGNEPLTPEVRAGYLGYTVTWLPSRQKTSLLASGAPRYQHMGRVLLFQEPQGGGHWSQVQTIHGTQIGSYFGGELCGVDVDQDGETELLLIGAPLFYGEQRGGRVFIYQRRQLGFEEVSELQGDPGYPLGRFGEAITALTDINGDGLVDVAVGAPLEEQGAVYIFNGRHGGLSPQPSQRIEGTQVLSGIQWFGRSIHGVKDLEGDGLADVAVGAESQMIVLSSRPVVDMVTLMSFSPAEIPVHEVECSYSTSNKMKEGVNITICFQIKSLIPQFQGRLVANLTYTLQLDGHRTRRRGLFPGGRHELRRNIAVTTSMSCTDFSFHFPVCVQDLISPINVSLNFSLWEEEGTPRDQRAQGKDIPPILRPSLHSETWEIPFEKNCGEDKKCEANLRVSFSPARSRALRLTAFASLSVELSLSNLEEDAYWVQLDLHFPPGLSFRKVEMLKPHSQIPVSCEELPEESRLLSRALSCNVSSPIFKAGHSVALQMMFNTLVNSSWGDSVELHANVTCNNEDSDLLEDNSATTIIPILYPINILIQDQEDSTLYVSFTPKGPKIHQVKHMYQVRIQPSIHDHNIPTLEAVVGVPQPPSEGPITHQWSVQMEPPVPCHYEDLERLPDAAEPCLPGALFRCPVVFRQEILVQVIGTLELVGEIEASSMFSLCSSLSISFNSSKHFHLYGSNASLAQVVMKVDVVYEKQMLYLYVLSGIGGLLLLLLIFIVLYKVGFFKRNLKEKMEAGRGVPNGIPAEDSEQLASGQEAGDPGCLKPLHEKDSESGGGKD
Sequence of LFA-1 (CD11a/CD18) on cells (human) (P05107 23-769, chain 2 of 2, further chain): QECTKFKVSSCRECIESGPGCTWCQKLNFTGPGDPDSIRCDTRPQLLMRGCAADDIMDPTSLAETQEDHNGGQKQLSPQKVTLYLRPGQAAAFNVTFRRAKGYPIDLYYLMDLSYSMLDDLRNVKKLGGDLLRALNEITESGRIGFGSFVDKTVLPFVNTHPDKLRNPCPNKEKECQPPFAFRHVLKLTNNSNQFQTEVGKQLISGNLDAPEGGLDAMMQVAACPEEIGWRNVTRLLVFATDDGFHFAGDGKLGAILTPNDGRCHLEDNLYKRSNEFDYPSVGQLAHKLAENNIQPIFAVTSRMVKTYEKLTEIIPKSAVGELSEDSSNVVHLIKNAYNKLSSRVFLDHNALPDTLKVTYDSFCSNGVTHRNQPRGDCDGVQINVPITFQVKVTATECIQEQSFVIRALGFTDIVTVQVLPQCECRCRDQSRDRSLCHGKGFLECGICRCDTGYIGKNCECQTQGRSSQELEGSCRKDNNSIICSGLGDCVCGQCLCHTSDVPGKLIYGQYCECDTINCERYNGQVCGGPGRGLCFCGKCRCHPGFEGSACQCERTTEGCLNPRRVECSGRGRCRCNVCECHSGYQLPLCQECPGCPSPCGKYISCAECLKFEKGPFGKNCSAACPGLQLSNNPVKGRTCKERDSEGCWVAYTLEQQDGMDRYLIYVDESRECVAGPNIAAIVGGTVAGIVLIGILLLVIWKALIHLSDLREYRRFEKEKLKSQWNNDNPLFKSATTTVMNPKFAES

Work on 60.3 (antibody) yielded an Inhibition (%) of CD18-dependent JY cell binding [1] of 100%.
ICAM-R peptide 72-76 (NGSQI) showed a % Inhibition CD18-Dependent Binding (SKW3) [2] of 26%.
With TS1/22 (antibody) the % inhibition of neutrophil binding to ICAM-R [3] was 50%.
